# Measured values taken from patent US20220074941A1, “HSP90 COMBINATION THERAPY” (Sloan-Kettering Institute for Cancer Research, priority 2011, published 2022).
# B1: ASCC2 (protein, UniProt Q9H1I8 1-757, looked up)
# Activating signal …: MPALPLDQLQITHKDPKTGKLRTSPALHPEQKADRYFVLYKPPPKDNIPALVEEYLERATFVANDLDWLLALPHDKFWCQVIFDETLQKCLDSYLRYVPRKFDEGVASAPEVVDMQKRLHRSVFLTFLRMSTHKESKDHFISPSAFGEILYNNFLFDIPKILDLCVLFGKGNSPLLQKMIGNIFTQQPSYYSDLDETLPTILQVFSNILQHCGLQGDGANTTPQKLEERGRLTPSDMPLLELKDIVLYLCDTCTTLWAFLDIFPLACQTFQKHDFCYRLASFYEAAIPEMESAIKKRRLEDSKLLGDLWQRLSHSRKKLMEIFHIILNQICLLPILESSCDNIQGFIEEFLQIFSSLLQEKRFLRDYDALFPVAEDISLLQQASSVLDETRTAYILQAVESAWEGVDRRKATDAKDPSVIEEPNGEPNGVTVTAEAVSQASSHPENSEEEECMGAAAAVGPAMCGVELDSLISQVKDLLPDLGEGFILACLEYYHYDPEQVINNILEERLAPTLSQLDRNLDREMKPDPTPLLTSRHNVFQNDEFDVFSRDSVDLSRVHKGKSTRKEENTRSLLNDKRAVAAQRQRYEQYSVVVEEVPLQPGESLPYHSVYYEDEYDDTYDGNQVGANDADSDDELISRRPFTIPQVLRTKVPREGQEEDDDDEEDDADEEAPKPDHFVQDPAVLREKAEARRMAFLAKKGYRHDSSTAVAGSPRGHGQSRETTQERRKKEANKATRANHNRRTMADRKRSKGMIPS
# B2: O60613 (protein, UniProt O60613 1-165, looked up)
# chain: MVAMAAGPSGCLVPAFGLRLLLATVLQAVSAFGAEFSSEACRELGFSSNLLCSSCDLLGQFNLLQLDPDCRGCCQEEAQFETKKLYAGAILEVCGUKLGRFPQVQAFVRSDKPKLFRGLQIKYVRGSDPVLKLLDDNGNIAEELSILKWNTDSVEEFLSEKLERI
# modifications: full-length
# B3: MLF2 (protein, UniProt Q15773 1-248, looked up)
# Myeloid leukemia factor 2: MFRFMRDVEPEDPMFLMDPFAIHRQHMSRMLSGGFGYSPFLSITDGNMPGTRPASRRMQQAGAVSPFGMLGMSGGFMDMFGMMNDMIGNMEHMTAGGNCQTFSSSTVISYSNTGDGAPKVYQETSEMRSAPGGIRETRRTVRDSDSGLEQMSIGHHIRDRAHILQRSRNHRTGDQEERQDYINLDESEAAAFDDEWRRETSRFRQQRPLEFRRLESSGAGGRRAEGPPRLAIQGPEDSPSRQSRRYDW
# Tested on: Hsp90 complexes in K562 cell extract
# Test: Nano-LC-MS/MS of PU-beads pull-downs
# Type: binding
# Details: protein identified in PU-beads pull-down of K562 cell extract, Prep 1; QSTAR-Elite QTof MS
# How it was run: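 Proteins were identified by data-dependent nano LC-MS/MS (QTof, ESI) and Mascot searching (p<0.05), then reported as spectral counts and coverage via Scaffold. Inputs were PU-bead versus control-bead pull-downs from lysate pre-cleared with control beads overnight at 4 °C, eluted by boiling in 2% SDS.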
row,Molecule,"Number of Assigned Spectra, K562 Prep 1"
1,B1,0
2,B2,0
3,B3,2

# Same assay, conditions: protein identified in PU-beads pull-down of K562 cell extract, Prep 2; QSTAR-Elite QTof MS
row,Molecule,"Number of Assigned Spectra, K562 Prep 2"
1,B1,0
2,B2,0
3,B3,0

# Tested on: Hsp90 complexes in Mia-PaCa-2 cell extract
# Test: Nano-LC-MS/MS of PU-beads pull-downs
# Type: binding, human
# Details: protein identified in PU-beads pull-down of Mia-PaCa-2 cell extract; QSTAR-Elite QTof MS
# How it was run: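 They came from PU-bead pull-downs of pre-cleared lysates (control beads, overnight, 4 °C), eluted by boiling in 2% SDS, gel-separated and run by data-dependent nano-ESI QTof MS/MS.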
row,Molecule,"Number of Assigned Spectra, Mia-Paca 2"
1,B1,1
2,B2,2
3,B3,1
